Measurements as given in patent US9163227B2, “Anti-diabetic compounds” (PFIZER INC., priority 2011, dated 2015).
Substitutions are numbered along the chain they refer to. In names and notes the source's numbering stands. Several values for one entry are separate records, joined by “and”; a condition that tells them apart may be missing. Identical values can stand only once. Like-named read-outs stand apart in the source and are kept apart here. Values belong to the molecule of their own block, whether it stands above or below them.

Tests used:
[1] = Body weight and liver weight in ob/ob mice; type: in vivo; settings: single SC dose 3 mg/kg; for Cumulative body weight change, mean body weight: FIG. 5A; for mean liver weight: FIG. 5B
Description: (§1) The efficacy of FGF21 antibodies conjugates was evaluated in two murine obese insulin resistant models—ob/ob mice and high-fat diet-induced obese mice. For both models, male mice (6-8 weeks of age for ob/ob, 12-14 weeks of age for DIO with high-fat diet initiated at 6 weeks of age) were housed 2-4/cage and FGF21 antibody conjugates were administered by SC injection. Body weight was measured daily in the morning. Glucose tolerance was assessed by oral glucose tolerance test. Briefly, mice were fasted for 4-5 hrs in the morning of the day of testing. A basal blood sample was obtained and blood glucose levels were determined using a portable glucometer.

[2] = system: ob/ob mice; experiment: Oral glucose tolerance test in ob/ob mice (FGF21 conjugates); type: in vivo; settings: ob/ob mice; for Mean Glucose AUC (% of vehicle control) during OGTT: FIGS. 4A/4B, single SC dose 3 mg/kg
Description: as §1

[3] = target: Glut1 mRNA expression in differentiated 3T3-L1 adipocytes (Mus musculus, UniProt P16092+Q99N32); experiment: Glut1 Taqman assay; type: cell-based; settings: for EC50: 6 hrs
Sequence of Glut1 mRNA expression in differentiated 3T3-L1 adipocytes (P16092 22-822): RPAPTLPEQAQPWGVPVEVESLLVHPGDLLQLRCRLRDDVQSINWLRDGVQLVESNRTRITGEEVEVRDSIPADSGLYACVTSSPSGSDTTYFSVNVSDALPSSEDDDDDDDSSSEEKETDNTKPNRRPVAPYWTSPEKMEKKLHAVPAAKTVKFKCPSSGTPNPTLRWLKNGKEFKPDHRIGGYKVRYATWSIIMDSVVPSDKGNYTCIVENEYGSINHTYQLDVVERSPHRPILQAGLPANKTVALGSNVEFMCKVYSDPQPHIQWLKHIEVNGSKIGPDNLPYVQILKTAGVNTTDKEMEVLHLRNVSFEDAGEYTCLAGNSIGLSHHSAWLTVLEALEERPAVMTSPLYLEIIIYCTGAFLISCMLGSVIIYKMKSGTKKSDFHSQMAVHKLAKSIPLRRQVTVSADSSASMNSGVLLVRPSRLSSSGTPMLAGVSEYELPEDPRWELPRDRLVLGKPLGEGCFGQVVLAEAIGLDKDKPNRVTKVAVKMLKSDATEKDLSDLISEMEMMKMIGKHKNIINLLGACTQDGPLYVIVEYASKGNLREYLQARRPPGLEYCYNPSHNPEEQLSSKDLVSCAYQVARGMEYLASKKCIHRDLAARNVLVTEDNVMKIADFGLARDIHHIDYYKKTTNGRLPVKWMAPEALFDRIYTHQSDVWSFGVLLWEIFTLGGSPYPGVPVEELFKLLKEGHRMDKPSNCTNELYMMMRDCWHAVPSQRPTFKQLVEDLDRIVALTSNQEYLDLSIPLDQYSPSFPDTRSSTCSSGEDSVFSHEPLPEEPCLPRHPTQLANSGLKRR
Sequence of Glut1 mRNA expression in differentiated 3T3-L1 adipocytes (Q99N32 whole entry): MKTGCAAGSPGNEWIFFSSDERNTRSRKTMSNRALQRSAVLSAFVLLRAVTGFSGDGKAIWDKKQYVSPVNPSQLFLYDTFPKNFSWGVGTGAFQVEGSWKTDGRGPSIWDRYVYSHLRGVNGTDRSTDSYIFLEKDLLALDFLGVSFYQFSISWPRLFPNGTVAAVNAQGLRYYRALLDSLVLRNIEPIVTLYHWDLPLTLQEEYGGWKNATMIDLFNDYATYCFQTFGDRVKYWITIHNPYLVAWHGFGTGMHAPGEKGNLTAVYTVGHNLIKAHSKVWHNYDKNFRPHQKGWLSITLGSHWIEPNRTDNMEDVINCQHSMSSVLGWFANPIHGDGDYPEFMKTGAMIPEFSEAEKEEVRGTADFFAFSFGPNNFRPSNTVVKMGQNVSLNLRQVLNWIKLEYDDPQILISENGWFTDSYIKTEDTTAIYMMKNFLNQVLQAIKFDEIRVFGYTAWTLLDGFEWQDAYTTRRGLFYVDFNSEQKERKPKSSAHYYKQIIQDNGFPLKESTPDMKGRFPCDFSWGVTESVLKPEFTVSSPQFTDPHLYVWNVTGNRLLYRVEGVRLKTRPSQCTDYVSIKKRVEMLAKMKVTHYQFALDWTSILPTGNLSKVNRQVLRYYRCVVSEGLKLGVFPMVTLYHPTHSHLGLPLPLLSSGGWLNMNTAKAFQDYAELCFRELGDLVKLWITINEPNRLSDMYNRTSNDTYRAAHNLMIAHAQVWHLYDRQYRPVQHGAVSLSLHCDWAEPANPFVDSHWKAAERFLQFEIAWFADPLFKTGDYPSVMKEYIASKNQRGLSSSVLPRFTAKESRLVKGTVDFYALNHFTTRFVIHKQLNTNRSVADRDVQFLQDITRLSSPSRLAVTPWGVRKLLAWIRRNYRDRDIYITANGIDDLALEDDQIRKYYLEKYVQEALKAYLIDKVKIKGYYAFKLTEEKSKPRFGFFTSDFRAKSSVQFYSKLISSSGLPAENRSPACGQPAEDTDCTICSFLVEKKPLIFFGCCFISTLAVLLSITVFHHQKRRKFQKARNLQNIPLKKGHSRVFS
Description: Differentiated 3T3-L1 adipocytes were used to measure the Glut1 mRNA expression by qPCR method. Overnight serum starved day 10-14 differentiated 3T3-L1 adipocytes were treated with compounds for 6 hrs. Total RNA was extracted from these cells, and Glut1 and GAPDH mRNA expression was measured using a Quantitect Probe RT-PCR kit and running a quantitative real time PCR reaction in a Taqman machine (Applied Biosystems®). The bioactivity of the compounds was determined by a fold change in Glut1 mRNA levels normalized by the GAPDH mRNA levels from each sample. EC═values as measurements of the potency of the compounds were obtained from the dose response curves in the assay.
3T3-L1 adipocytes were seeded at day 8 in 24-well tissue culture plates (Falcon®, Cat#353047), and incubated in DMEM complete medium (10% FBS, 2 mM L-glutamine, 1% P/S) at 37° C., 5% CO2. […] The medium was aspirated, and then RNA extracted from the cells using the RNeasy mini Kit according to the manufacturer's instructions. RNA was measured at A260 nm using the Spectramax® Plus spectrophotometer.
In Glut1 Taqman assay, differentiated 3T3-L1 adipocytes were used to measure the Glut1 mRNA expression by real-time quantitative PCR (qPCR) method described below. Overnight serum starved day 10-14 differentiated 3T3-L1 adipocytes were treated with compounds for 6 hrs. Total RNA was extracted from these cells, and Glut1 and GAPDH mRNA expression was measured using a Quantitect Probe RT-PCR kit and running a real time quantitative PCR reaction in a Taqman machine. The bioactivity of the compounds was determined by a fold change in Glut1 mRNA levels normalized by the GAPDH mRNA levels from each sample. In cAMP assay, Chinese hamster ovary (CHO) cells over-expressing human GLP-1R(CHO-hGLP-1R) were seeded in 96-well plates in serum-free medium with 300 uM IBMX. Cells were incubated with compounds at RT for 1 hr. The cAMP levels were measured using a CisBio cAMP Kit according to manufacturer's instructions. The bioactivity of the compounds was determined by the EC50 values obtained from the assay (see Table 42).

[4] = Mouse pharmacokinetics of FGF21 antibody conjugates; type: in vivo, Swiss-Webster mice; settings: mice
Description: The PK of FGF21 antibody conjugates were examined in mice after IV or SC administration. […] Antibody conjugates concentrations in serum were determined using an ELISA which captured the FGF21 portion of the antibody conjugates through a monoclonal anti-hFGF21 antibody bound to a 96-well plate. FGF21 antibody conjugates bound to the plate were detected through an anti-hFc monoclonal antibody, and concentrations were determined using a standard curve of the PK dosing solution diluted into serum-containing assay buffer. SC bioavailability was calculated as the ratio of the area-under the curve (AUC) of the SC serum concentration profile divided by the AUC of the IV serum concentration profile.

[5] = target: differentiated 3T3-L1 adipocytes (Mus musculus, UniProt P16092+Q99N32); experiment: Glucose uptake assay; type: cell-based
Sequence of differentiated 3T3-L1 adipocytes (P16092 22-822): as the sequence (P16092 22-822) above
Sequence of differentiated 3T3-L1 adipocytes (Q99N32 whole entry): as the sequence (Q99N32 whole entry) above
Description: Differentiated 3T3-L1 adipocytes were treated with compounds in the absence of serum for 24 hrs. Cells were then incubated with ^14C-2-deoxyglucose for 1 hr and glucose uptake into the cells was quantitated in Wallac 1450 MicroBeta (Trilux) instrument. Glucose uptake was expressed in counts per min (CPM). EC50 values as measurements of the potency of the compounds were obtained from the dose response curves in the assay.

[6] = differentiated 3T3-L1 adipocytes, protein or antibody conjugate as labelled, read-out: Glut1 Taqman assay EC50
[7] = 3T3-L1 adipocytes, 24 hrs, unconjugated protein

- EC50 [3, 6]: 6.4 nM and 4.3 nM
B2: FGF21ΔH-Knull-H1K: FGF21 lysine-null mutant with H1K, SEQ ID NO:23 (protein, listed as Homo sapiens)
chain: KPIPDSSPLLQFGGQVRQRYLYTDDAQQTEAHLEIREDGTVGGAADQSPESLLQLRALRPGVIQILGVRTSRFLCQRPDGALYGSLHFDPEACSFRELLLEDGYNVYQSEAHGLPLHLPGNRSPHRDPAPRGPARFLPLPGLPPALPEPPGILAPQPPDVGSSDPLSMVGPSQGRSPSYAS
- IV half-life [4]: 16 h
- SC bioavailability [4]: 51%
- SC half-life [4]: 11 h

- EC50 [3, 6]: 7.5 nM
B5: FGF21ΔH-Knull-S181K: FGF21 lysine-null mutant with S181K, SEQ ID NO:24 (protein, listed as Homo sapiens)
chain: PIPDSSPLLQFGGQVRQRYLYTDDAQQTEAHLEIREDGTVGGAADQSPESLLQLRALRPGVIQILGVRTSRFLCQRPDGALYGSLHFDPEACSFRELLLEDGYNVYQSEAHGLPLHLPGNRSPHRDPAPRGPARFLPLPGLPPALPEPPGILAPQPPDVGSSDPLSMVGPSQGRSPSYAK

- EC50 ([5]; unconjugated protein (per Examples 18-21), n in parentheses): 62 nM
B8: FGF21ΔH-L86C: FGF21 cysteine mutant, SEQ ID NO:14 (protein, listed as Homo sapiens)
chain: B5 chain with R55K, R58K, R68K, L85C, R121K, K180S

- EC50 [3, 6]: 1.2 nM
B9: FGF21ΔH-Knull-P2: FGF21 lysine-null mutant, SEQ ID NO:22 (protein, listed as Homo sapiens)
chain: B5 chain with K180S

- EC50 [3, 6]: 1.3 nM
- EC50 [5, 7]: 5.2 nM
B10: FGF21ΔH-K56R-K59R-K69-K122R: FGF21 lysine mutant, SEQ ID NO:20 (protein, listed as Homo sapiens)
chain: B5 chain with R68K, K180S

More lines, now with the values behind:

B1: Ab-L5-FGF21ΔH-Knull-H1K: SEQ ID NO:23 combined with L5 at H1K and conjugated with h38C2 (conjugate, listed as Homo sapiens)
chain: B2 chain
modifications: L5 linker at K1 conjugated to h38C2 antibody
- Cumulative body weight change, mean body weight [1]: 2.6 g
- mean liver weight [1]: 2.4 g
- Mean Glucose AUC (% of vehicle control) during OGTT [2]: 100 % of vehicle control
- glucose tolerance in ob/ob mice (in words) [2]: compared poorly against Ab-FGF21ΔH-H125C

B3: Ab-L5-FGF21ΔH-K59: SEQ ID NO:19 combined with L5 at K59 and conjugated with h38C2 (conjugate, listed as Homo sapiens)
chain: B5 chain with R58K, K180S
modifications: L5 linker at K59 conjugated to h38C2 antibody
- Cumulative body weight change, mean body weight [1]: 2.7 g
- mean liver weight [1]: 2.4 g
- EC50 [3, 6]: 6.5 nM
- Mean Glucose AUC (% of vehicle control) during OGTT [2]: 105 % of vehicle control
- IV half-life [4]: 13 h

B4: FGF21ΔH-K56R-K59-K69R-K122R: FGF21 lysine mutant, SEQ ID NO:19 (protein, listed as Homo sapiens)
chain: B5 chain with R58K, K180S
- EC50 [3, 6]: 0.6 nM
- EC50 [5, 7]: 0.9 nM

B6: Ab-L5-FGF21ΔH-Knull-S181K: SEQ ID NO:24 combined with L5 at S181K and conjugated with h38C2 (conjugate, listed as Homo sapiens)
chain: B5 chain
modifications: L5 linker at K181 conjugated to h38C2 antibody
- EC50 [3, 6]: > 500 nM

B7: Ab-L5-FGF21ΔH-Knull-P2: SEQ ID NO:22 combined at the N' terminus of P2 with L5 and conjugated with h38C2 (conjugate, listed as Homo sapiens)
chain: B5 chain with K180S
modifications: L5 linker at N-terminus, conjugated to h38C2 antibody
- EC50 [3, 6]: 16.6 nM
- IV half-life [4]: 17 h

B11: FGF21ΔH-H125C: FGF21 cysteine mutant, SEQ ID NO:7 (protein, listed as Homo sapiens)
chain: B5 chain with R55K, R58K, R68K, R121K, H124C, K180S
- EC50 [3, 6]: 1.2 nM

B12: FGF21ΔH-K56-K59R-K69R-K122: FGF21 lysine mutant, SEQ ID NO:21 (protein, listed as Homo sapiens)
chain: B5 chain with R121K, K180S
- EC50 [3, 6]: 2.6 nM
- EC50 [5, 7]: 1.7 nM

B13: FGF21ΔH-A129C: FGF21 cysteine mutant, SEQ ID NO:10 (protein, listed as Homo sapiens)
chain: B5 chain with R55K, R58K, R68K, R121K, A128C, K180S
- activity in Glut1 Taqman assay (in words) ([3]; 3T3-L1 adipocytes): dose-dependent Glut1 induction
- EC50 ([3]; 3T3-L1 adipocytes, serum-free DMEM 0.2% BSA, Taqman quantitative real-time PCR, read-out: Glut1 RNA expression EC50): 16 nM
- EC50 [3, 6]: 1.4 nM

B14: FGF21ΔH-K56-K59R-K69R-K122R: FGF21 lysine mutant, SEQ ID NO:18 (protein, listed as Homo sapiens)
chain: B5 chain with R55K, K180S
- EC50 [3, 6]: 0.9 nM
- EC50 [5, 7]: 5.5 nM
